How the values were obtained:
GFP-ERα (human) = GFP-ERα (human) (UniProt P03372); assay: cell-based or functional assay
[1] = target: Myc-tagged estrogen receptor beta (UniProt O08537); assay: cell-based or functional assay
Chain of Myc-tagged estrogen receptor beta (O08537 whole entry): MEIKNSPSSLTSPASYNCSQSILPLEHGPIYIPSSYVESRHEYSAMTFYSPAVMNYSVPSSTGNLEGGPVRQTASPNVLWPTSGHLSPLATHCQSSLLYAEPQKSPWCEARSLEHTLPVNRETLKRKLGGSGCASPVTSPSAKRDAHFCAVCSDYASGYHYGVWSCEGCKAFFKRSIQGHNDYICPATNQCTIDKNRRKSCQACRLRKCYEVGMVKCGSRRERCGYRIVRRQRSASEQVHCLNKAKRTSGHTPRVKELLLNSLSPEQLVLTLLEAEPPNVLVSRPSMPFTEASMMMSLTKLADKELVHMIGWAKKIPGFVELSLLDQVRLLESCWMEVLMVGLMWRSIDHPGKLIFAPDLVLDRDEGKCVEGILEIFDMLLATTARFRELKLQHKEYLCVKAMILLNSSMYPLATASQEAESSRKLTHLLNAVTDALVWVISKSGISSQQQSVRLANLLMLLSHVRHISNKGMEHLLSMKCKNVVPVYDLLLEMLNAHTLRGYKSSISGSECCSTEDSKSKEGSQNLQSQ

Chain of GFP-ERα (human) (P03372 whole entry): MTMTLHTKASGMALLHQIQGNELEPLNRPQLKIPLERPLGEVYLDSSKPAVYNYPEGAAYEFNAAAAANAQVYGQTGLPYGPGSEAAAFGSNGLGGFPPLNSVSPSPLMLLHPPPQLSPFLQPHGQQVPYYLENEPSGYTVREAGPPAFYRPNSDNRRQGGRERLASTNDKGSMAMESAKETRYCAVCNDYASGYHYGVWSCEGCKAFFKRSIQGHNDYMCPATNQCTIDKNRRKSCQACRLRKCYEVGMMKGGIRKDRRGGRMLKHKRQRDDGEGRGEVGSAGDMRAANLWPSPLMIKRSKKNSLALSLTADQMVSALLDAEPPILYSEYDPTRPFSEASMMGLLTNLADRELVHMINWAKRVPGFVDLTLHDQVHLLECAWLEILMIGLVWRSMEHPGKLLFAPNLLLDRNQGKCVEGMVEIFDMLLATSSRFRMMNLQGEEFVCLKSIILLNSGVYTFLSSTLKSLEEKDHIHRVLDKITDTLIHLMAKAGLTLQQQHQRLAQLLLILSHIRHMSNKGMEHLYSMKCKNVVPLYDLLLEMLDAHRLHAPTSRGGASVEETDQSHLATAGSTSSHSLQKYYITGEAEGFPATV

ERE-driven luciferase activity (ERE-TATA-LUC reporter in HEK 293 cells) (fold reduction) (GFP-ERα (human)): 2 | ERE-driven luciferase activity (ERE-TATA-LUC reporter in HEK 293 cells) (fold reduction) [1]: 2
Substance: WDR13 (overexpressed in the luciferase assay, construct not stated) (from UniProt Q91V09 1-485)

— US20140157444A1
